In patent US20090042785A1 (Pieris, published 2009):
Residue numbers refer to the chain shown, from its start. Names and notes keep the numbering of the source.

B1: hNGAL mutein S140.4-B16 (designed binder)
chain: QDSTSDLIPAPPLSKVPLQQNFQDNQFHGKWYVVGLAGNRILRDDQHPMNMYATIYELKEDKSYNVTSVIFPHKKCEYTIATFVPGSQPGEFTLSDIKSYGDKTSYLVRVVSTDYNQYAVVFFKLAEDNAEFFAITIYGRTKELASELKENFIRFSKSLGLPENHIVFPVPIDQCIDG
notes: tagged entry not tied to the name; not shown: N-terminal T7 detection tag from vector phNGAL37; C-terminal Strep-tag II from vector phNGAL37
B2: hNGAL mutein S140.1-F09 (designed binder)
chain: B1 chain with F71S, P72S, S95G, D96N, D114N
notes: as for B1
B3: hNGAL mutein S140.3-P07 (designed binder)
chain: B1 chain with S95G, D96N, N129D
notes: as for B1
B4: hNGAL mutein S140.2-P24 (designed binder)
chain: B1 chain with N50D, F71S, P72S, S95G, D96N, N116S
notes: as for B1
B5: hNGAL mutein F92.1-J08 (designed binder)
chain: QDSTSDLIPAPPLSKVPLQQNFQDNQFHGKWYVVGLAGNRILRDDQHPMNMYATIYELKEDKSYNVTSVIFPHKKCEYTIATFVPGSQPGEFTLGNIKSYGDKTSYLVRVVSTNYNQYAVVFFKLAEDNAEFFAITIYGRTKELASELKENFIRFSKSLGLPENHIVFPVPIDQCIDGSAWSHPQF
notes: also called CTLA-4-J08
B6: S140.4-O10-CH4 (fusion with the CH4 domain of the human IgE-Fc portion) (designed binder)
chain: QDSTSDLIPAPPLSKVPLQQNFQDNQFHGKWYVVGLAGNRILRDDQHPMNMYATIYELKEDKSYNVTSVISSHKKCEYTIATFVPGSQPGEFTLGNIKSYGDKTSYLVRVVSTDYNQYAVVFFKLAEDNAEFFAITIYGRTKELASELKENFIRFSKSLGLPENHIVFPVPIDQCIDGSTTKTSGPRAAPEVYAFATPEWPGSRDKRTLACLIQNFMPEDISVQWLHNEVQLPDARHSTTQPRKTKGSGFFVFSRLEVTRAEWEQKDEFICRAVHEAASPSQTVQRAVSVNPESSRSGGCSAWSHPQFEK
modifications: The molecule is a homodimer formed through the CH4 domain (the patent calls it the CH4-dimer). One copy of the chain is given.
notes: Fused for dimerization; CH4 domain between the mutein and the C-terminal Strep tag; also called CH4-dimer
B7: hNGAL mutein S67.3-C21 (designed binder)
chain: QDSTSDLIPAPPLSKVPLQQNFQDNQFHGKWYVVGLAGNYIWRNDRYPMQMYATIYELKEDKSYNVTSVIFDTKKCEYPIATFVPGSQPGEFTLGNIKSYRMDTSYLVRVVSTNYNQHAMVFFKQVNHNTEHFAITIYGRTKELASELKENFIRFSKSLGLPENHIVFPVPIDQCIDGSAWSHPQF
B8: hNGAL mutein S109.4-A15 (designed binder)
chain: B5 chain with N50D, Y118H, V120T
B9: hNGAL mutein S106.1-N15 (designed binder)
chain: B5 chain with V34L, Y118H, V120M
B10: hNGAL mutein S109.5-L04 (designed binder)
chain: B5 chain with Q46R, Y118H, V120T
B11: hNGAL mutein S106.3-O19 (designed binder)
chain: B5 chain with Y78H, N114D, Y118H, V120M, K124E, A126V, E131G
B12: hNGAL mutein S107.4-C16 (designed binder)
chain: B5 chain with Y118H, V120M, K124E, A126V, E131G
B13: hNGAL mutein S109.6-J11 (designed binder)
chain: B5 chain with I80F, Y118H, V120T, I135V
B14: hNGAL mutein S106.3-K20 (designed binder)
chain: B5 chain with Y118H, K124Q, A126V, E131G
B15: hNGAL mutein S94.2-F05 (designed binder)
chain: B5 chain with V120M, I135V
B16: hNGAL mutein S67.2-F03 (designed binder)
chain: B5 chain with Y118H, V120M, A126V
B17: hNGAL mutein S109.5-L23 (designed binder)
chain: B5 chain with N65D, I80T, D102G, Y118H, V120T, E127G
B18: S140.4-O10_A145C (designed binder)
chain: B1 chain with F71S, P72S, S95G, D96N, A145C
notes: Produced from phNGAL15 without the T7 tag
B19: S140.4-O10_V84C (designed binder)
chain: B1 chain with F71S, P72S, V84C, S95G, D96N
notes: as for B18
B20: S140.4-O10_S158C (designed binder)
chain: B1 chain with F71S, P72S, S95G, D96N, S158C
notes: as for B18
B21: S140.4-O10_E60C (designed binder)
chain: B1 chain with E60C, F71S, P72S, S95G, D96N
notes: as for B18
B22: S140.4-O10_S146C (designed binder)
chain: B1 chain with F71S, P72S, S95G, D96N, S146C
notes: as for B18
B23: S140.4-O10_Q88C (designed binder)
chain: B1 chain with F71S, P72S, Q88C, S95G, D96N
notes: as for B18
B24: S140.4-O10_S14C (designed binder)
chain: B1 chain with S14C, F71S, P72S, S95G, D96N
notes: as for B18
B25: S140.4-O10_N116 (designed binder)
chain: B1 chain with F71S, P72S, S95G, D96N, N116C
notes: Produced from phNGAL15 without the T7 tag; also called O10_N116C
B26: S140.4-O10_N21C (designed binder)
chain: B1 chain with N21C, F71S, P72S, S95G, D96N
notes: as for B18
B27: S140.4-O10_T141C (designed binder)
chain: B1 chain with F71S, P72S, S95G, D96N, T141C
notes: as for B18
B28: S140.4-O10_E143C (designed binder)
chain: B1 chain with F71S, P72S, S95G, D96N, E143C
notes: as for B18
B29: S140.4-O10 with a free cystein residue at position 87 (designed binder)
chain: QDSTSDLIPAPPLSKVPLQQNFQDNQFHGKWYVVGLAGNRILRDDQHPMNMYATIYELKEDKSYNVTSVISSHKKCEYTIATFVPGCQPGEFTLGNIKSYGDKTSYLVRVVSTDYNQYAVVFFKLAEDNAEFFAITIYGRTKELASELKENFIRFSKSLGLPENHIVFPVPIDQCIDGSAWSHPQFEK
notes: Not PEGylated; also called O10_S87C; S87C variant
B30: S140.4-O10_E143C PEGylated with 12k PEG-maleimide (designed binder)
chain: B1 chain with F71S, P72S, S95G, D96N, E143C
modifications: 12k PEG-maleimide on Cys 143
notes: also called O10_E143C PEGylated monomer
B31: S140.4-O10_A145C PEGylated with 12k PEG-maleimide (designed binder)
chain: B1 chain with F71S, P72S, S95G, D96N, A145C
modifications: 12k PEG-maleimide on Cys 145
notes: also called O10_A145C PEGylated monomer
B32: S140.4-O10_V84C PEGylated with 12k PEG-maleimide (designed binder)
chain: B1 chain with F71S, P72S, V84C, S95G, D96N
modifications: 12k PEG-maleimide on Cys 84
notes: also called O10_V84C PEGylated monomer
B33: S140.4-O10_T141C PEGylated with 12k PEG-maleimide (designed binder)
chain: B1 chain with F71S, P72S, S95G, D96N, T141C
modifications: 12k PEG-maleimide on Cys 141
notes: also called O10_T141C PEGylated monomer
B34: S140.4-O10_S146C PEGylated with 12k PEG-maleimide (designed binder)
chain: B1 chain with F71S, P72S, S95G, D96N, S146C
modifications: 12k PEG-maleimide on Cys 146
notes: also called O10_S146C PEGylated monomer

Biological target: T1, human CTLA-4-Fc (Chimerigen) (human, UniProt P16410 36-161; P01857 99-330 = IgG part, limits assumed)
T1 construct: extracellular domain;domain: Fc portion; Bought protein; also called hCTLA-4-Fc; huCTLA-4-Ig
Experiment: SPR as in Example 9

T1 sequence (P16410 other isoform, or with tags, fused parts or gaps mutant limits assumed): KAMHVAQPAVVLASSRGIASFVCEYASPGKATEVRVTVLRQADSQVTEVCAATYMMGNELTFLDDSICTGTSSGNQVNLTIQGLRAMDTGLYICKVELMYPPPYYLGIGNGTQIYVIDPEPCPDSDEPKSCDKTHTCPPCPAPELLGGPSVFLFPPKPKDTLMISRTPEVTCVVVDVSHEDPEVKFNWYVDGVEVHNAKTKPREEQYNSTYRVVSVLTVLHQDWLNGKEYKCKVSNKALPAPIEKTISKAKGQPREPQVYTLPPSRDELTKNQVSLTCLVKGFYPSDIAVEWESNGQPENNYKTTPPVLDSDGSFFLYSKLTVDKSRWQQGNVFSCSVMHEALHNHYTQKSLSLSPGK

Point of comparison: B2, Kd 7.8 nM. Against it:
- B1 — 8.7-fold higher, 68 nM
- B3 — 3.7-fold higher, 29 nM
- B4 — 2.6-fold higher, 20 nM
- B5 — 1.6-fold higher, 12.8 nM

Point of comparison: B5, koff 0.000116 s⁻¹. Against it:
- B1 — 3.6-fold higher, 0.000418 s⁻¹
- B2 — within 1.5-fold, ~9.2e-05 s⁻¹
- B3 — 2.8-fold higher, 0.000319 s⁻¹
- B4 — 2.4-fold higher, 0.00028 s⁻¹

Point of comparison: B3, kon 11000 M⁻¹ s⁻¹. Against it:
- B1 — 1.8-fold lower, 6160 M⁻¹ s⁻¹
- B2 — within 1.5-fold, 11800 M⁻¹ s⁻¹
- B4 — within 1.5-fold, 14000 M⁻¹ s⁻¹
- B5 — within 1.5-fold, 9240 M⁻¹ s⁻¹

Biological target: T2, mCTLA-4-Fc (R&D Systems) (mouse, UniProt P09793 36-162)
Experiment: SPR as in Example 9

T2 sequence (P09793 whole entry): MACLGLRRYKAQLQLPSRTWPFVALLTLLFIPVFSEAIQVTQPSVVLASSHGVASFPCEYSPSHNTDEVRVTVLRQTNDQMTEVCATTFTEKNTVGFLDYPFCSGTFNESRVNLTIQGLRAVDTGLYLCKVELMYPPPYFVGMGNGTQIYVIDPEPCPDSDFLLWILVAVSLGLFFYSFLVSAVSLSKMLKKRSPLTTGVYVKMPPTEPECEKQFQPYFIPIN

Point of comparison: B1, Kd 112 nM. Against it:
- B2 — 4-fold lower, 27.9 nM
- B3 — within 1.5-fold, 98 nM
- B4 — 2.4-fold lower, 47 nM

Point of comparison: B2, koff 0.000379 s⁻¹. Against it:
- B1 — within 1.5-fold, 0.00056 s⁻¹
- B3 — 1.8-fold higher, 0.000666 s⁻¹
- B4 — 1.9-fold higher, 0.000705 s⁻¹

Point of comparison: B1, kon 5000 M⁻¹ s⁻¹. Against it:
- B2 — 2.8-fold higher, 14000 M⁻¹ s⁻¹
- B3 — within 1.5-fold, 6800 M⁻¹ s⁻¹
- B4 — 3-fold higher, 15000 M⁻¹ s⁻¹

Biological target: T1, human CTLA-4-Fc (Chimerigen)
Experiment: SPR; KD listed beside Tm

Point of comparison: B5, Kd 12.8 nM. Against it:
- B1 — 5.3-fold higher, 68 nM
- B2 — 1.6-fold lower, 7.8 nM
- B3 — 2.3-fold higher, 29 nM
- B4 — 1.6-fold higher, 20 nM

Biological target: T2, mCTLA-4-Fc (R&D Systems)
Experiment: SPR; KD listed beside Tm

Point of comparison: B4, Kd 47 nM. Against it:
- B1 — 2.4-fold higher, 112 nM
- B2 — 1.7-fold lower, 27.9 nM
- B3 — 2.1-fold higher, 98 nM

Biological target: T1, human CTLA-4-Fc (Chimerigen)
Experiment: SPR-Affinity towards hCTLA-4-Fc

Binder B6 has a Kd of 0.8 nM.

Biological target: T1, human CTLA-4-Fc (Chimerigen)
Experiment: SPR, Fc fusion captured via anti-human IgG Fc

Point of comparison: B9, Kd 43 nM. Against it:
- B7 — 2.1-fold lower, 20 nM
- B5 — 3.4-fold lower, 12.8 nM
- B8 — 1.7-fold lower, 26 nM
- B10 — within 1.5-fold, 29 nM
- B11 — 2-fold lower, 22 nM
- B12 — 1.5-fold lower, 28 nM
- B13 — 2.1-fold lower, 20 nM
- B14 — within 1.5-fold, 29 nM
- B15 — 2.4-fold lower, 18 nM
- B16 — within 1.5-fold, 47.1 nM

Point of comparison: B5, koff 0.000116 s⁻¹. Against it:
- B7 — 2.8-fold higher, 0.00033 s⁻¹
- B16 — 2.8-fold higher, 0.00033 s⁻¹

Point of comparison: B16, kon 7030 M⁻¹ s⁻¹. Against it:
- B7 — 2.3-fold higher, 16000 M⁻¹ s⁻¹
- B5 — within 1.5-fold, 9240 M⁻¹ s⁻¹

Biological target: T2, mCTLA-4-Fc (R&D Systems)
Experiment: SPR, Fc fusion captured via anti-human IgG Fc

Point of comparison: B9, Kd 110 nM. Against it:
- B7 — 62-fold higher, 6800 nM
- B10 — 2.6-fold lower, 42 nM
- B11 — within 1.5-fold, 135 nM
- B12 — 2.5-fold higher, 275 nM
- B13 — 2.3-fold lower, 47 nM
- B14 — 2.7-fold higher, 300 nM
- B17 — 5.8-fold lower, 19 nM
- B15 — 1.7-fold lower, 65 nM
- B16 — 1.8-fold higher, 198 nM

Point of comparison: B7, koff 0.098 s⁻¹. Against it:
- B16 — 110-fold lower, 0.00089 s⁻¹

Point of comparison: B7, kon 14500 M⁻¹ s⁻¹. Against it:
- B16 — 3.2-fold lower, 4500 M⁻¹ s⁻¹

Biological target: T1, human CTLA-4-Fc (Chimerigen)
Experiment: SPR-Affinity of the monomer towards hCTLA-4-Fc

Point of comparison: B19, Kd 15 nM. Against it:
- B18 — 2.5-fold lower, 6 nM
- B20 — within 1.5-fold, 13 nM
- B21 — 1.6-fold higher, 24 nM
- B22 — 1.7-fold lower, 9 nM
- B23 — the same, 15 nM
- B24 — within 1.5-fold, 13 nM
- B25 — 1.5-fold lower, 10 nM
- B26 — 2.1-fold higher, 32 nM
- B27 — 3.8-fold lower, 4 nM
- B28 — the same, 15 nM
- B29 — 2.5-fold lower, 6 nM

Biological target: T1, human CTLA-4-Fc (Chimerigen)
Experiment: SPR-Affinity of the PEGylated monomer towards hCTLA-4-Fc

Point of comparison: B32, Kd 97 nM. Against it:
- B30 — within 1.5-fold, 85 nM
- B31 — 1.9-fold lower, 50 nM
- B33 — within 1.5-fold, 69 nM
- B34 — 1.9-fold lower, 50 nM

Biological target: T1, human CTLA-4-Fc (Chimerigen)
Experiment: Affinity-ELISA of the PEGylated monomer towards hCTLA-4-Fc

Point of comparison: B31, “ELISA-Affinity PEGylated Monomer” value 74 nM. Against it:
- B30 — within 1.5-fold, 103 nM
- B32 — within 1.5-fold, 100 nM
- B33 — within 1.5-fold, 82 nM
- B34 — within 1.5-fold, 100 nM
